Source: patent publication US20160304580A1 (ALLIGATOR BIOSCIENCE, published 2016)
One block for each binder: values may come before it.

Legend:
[1] = biological target: T1, human CTLA4-Fc (Fitzgerald #30R-CD152) (human, UniProt P16410 38-152, biotinylated in the inhibition ELISAs (sites not given)); test: SPR (Biacore); ratio [Kd for CD28] / [Kd for CTLA-4] compared with wild type
T1 construct: Bought reagent; Used plain (coated or immobilised) and biotinylated (in solution); also called biotinylated-CTLA4; human CTLA-4 (Fitzgerald); not shown: Fc of the bought fusion protein
T1 sequence: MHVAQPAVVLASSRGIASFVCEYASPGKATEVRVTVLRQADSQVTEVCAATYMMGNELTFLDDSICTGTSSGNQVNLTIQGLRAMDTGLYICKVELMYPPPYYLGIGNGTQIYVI
Procedure: (§1) The phage clones selected from Example 1 were re-cloned according to standard protocols into a fusion protein-format, with each clone fused to γ2/γ4 Fc. The fusion proteins were expressed in HEK293 cells. Supernatants culure of the cells were collected and the expressed fusion proteins were assayed using both ELISA and Biacore™ according to the methods set out below.
Either CTLA4-Fc (Fitzgerald #30R-CD152) or CD28-Fc (R&D systems 342-CD) was immobilized to the Biacore™ senshorship, CM5, using conventional amine coupling. The CD86 mutant molecules and controls (serially diluted ½ 100-1.5 nM) were analyzed for binding in HBs-P (GE, BR-1003-69) at a flow rate […]. The association was followed for 3 minutes and the dissociation for 10 minutes. Regeneration was performed twice using 5 mM NaOH for 30 seconds. The kinetic parameters and the affinity constants were calculated using BIAevaluation 4.1 software.

[2] = biological target: T1, human CTLA4-Fc (Fitzgerald #30R-CD152); test: ELISA; ratio [EC50 for CD28] / [EC50 for CTLA-4] compared with wild type
Procedure: as §1
(§2) 96-well flat bottom high binding plates (Greiner #655074) were coated with either CTLA4-Fc (Fitzgerald #30R-CD152) or CD28-Fc (R&D systems 342-CD) by incubating overnight at 4° C. The plates were washed (Wash buffer: PBS+0.05% Tween 20 (PBST) Medicago #09-9410-100) and then blocked in PBST+3% BSA (Merck, #1.12018.0100). The plates were washed again and sample or controls (serially diluted ⅕ from 200-0.001 μg/ml) were added to the wells. The samples were incubated for 1 h at room temperature and then washed. Detection antibody, goat-anti-human IgG Fcγ-HRP (Jackson, #109-035-098) was added and the plates were subsequently developed using SuperSignal Pico Chemiluminescent substrate (Thermo #37069) and detected with an Envision reader (Perkin Elmer). EC50 values were calculated for both CTLA4 and CD28. The binding ratio (EC50 binding ratio=[EC50 for CD28]÷[EC50 for CTLA-4]) was calculated for each polypeptide and is shown in Table 4.

[3] = biological target: T1, human CTLA4-Fc (Fitzgerald #30R-CD152); test: binding ELISA on coated CTLA4-Fc; against wild type and H79A; upper end tied to 1040 by Table 7
Procedure: as §2, with “Similar to the protocol described in Example 2, 96-well” for “96-well”, “(kindly provided by Simon Davis, Oxford University)” for “(R&D systems 342-CD)”, “⅓” for “⅕”, “50 000-0001 nM)” for “200-0.001 μg/ml)”, “Elmer).” for “Elmer). EC50 values were calculated for both CTLA4 and CD28. The binding ratio (EC50 binding ratio=[EC50 for CD28]÷[EC50 for CTLA-4]) was calculated for each polypeptide and is shown in Table 4.”
(§3) Binding to CD28 was too low for detection by this assay (data not shown).

[4] = biological target: T1, human CTLA4-Fc (Fitzgerald #30R-CD152); test: binding ELISA: CTLA4-Fc coated on the plate, sample serially diluted, detection with goat anti-human IgG Fcγ-HRP, chemiluminescence, data normalised to %
Procedure: as §2, with “Similar to the protocol described in Example 2, 96-well” for “96-well”, “(kindly provided by Simon Davis, Oxford University)” for “(R&D systems 342-CD)”, “⅓” for “⅕”, “50 000-0001 nM)” for “200-0.001 μg/ml)”, “Elmer).” for “Elmer). EC50 values were calculated for both CTLA4 and CD28. The binding ratio (EC50 binding ratio=[EC50 for CD28]÷[EC50 for CTLA-4]) was calculated for each polypeptide and is shown in Table 4.”
as §3

[5] = biological target: T1, human CTLA4-Fc (Fitzgerald #30R-CD152); test: binding ELISA on coated CTLA4-Fc; against wild type and H79A; lower end tied to 1042 by Table 7
Procedure: as §2, with “Similar to the protocol described in Example 2, 96-well” for “96-well”, “(kindly provided by Simon Davis, Oxford University)” for “(R&D systems 342-CD)”, “⅓” for “⅕”, “50 000-0001 nM)” for “200-0.001 μg/ml)”, “Elmer).” for “Elmer). EC50 values were calculated for both CTLA4 and CD28. The binding ratio (EC50 binding ratio=[EC50 for CD28]÷[EC50 for CTLA-4]) was calculated for each polypeptide and is shown in Table 4.”
as §3

fold improvement of EC50 [3]: 2 to 67 fold
EC50 (read off the curve) [4]: ~8 ng/mL
B3: CD86 mutant clone 1040 expressed as a gamma2/gamma4 fusion (Fc fusion)
chain: APLKIQAYFNETADLPCQFANSQNLSLSELVVFWQDQENLVLNEVYLGKERFDSVDSKYMGRTSFDSDSWTLRLHNLQIKDKGRYQCIIHHKKPTGMINIHQMNSELSVLA
notes: Purified on protein A; not shown: gamma2/gamma4 Fc

fold improvement of EC50 [5]: 2 to 67 fold
B4: CD86 mutant clone 1042 expressed as a gamma2/gamma4 fusion (Fc fusion)
chain: APLKIQAYFNETADLPCQFANSQNLSLSELVVFWQDQENLVLNEVYLGKEIFDSVSSKYMGRTSFDSDSWTLRLHNLQIKDKGIYQCIIHHKKPSGMVKIHQMDSELSVLA
notes: as for B3

The remaining lines, values behind:

B1: CD86 mutant clone 904 fused to γ2/γ4 Fc (Fc fusion)
chain: LKIQAYFNETADLPCQFANSQNQSLSELIVFWQDQENLVLNEVYLGKERFDAVDSKYMGRTSFDSDSWTLRLHNLQIKDKGIYQCIIHHKKPSGMVKIHQMDSELSVLA
notes: not shown: γ2/γ4 Fc
fold of Kd binding ratio over wild type CD86 [1]: > 4 times

B2: CD86 mutant clone 907 fused to γ2/γ4 Fc (Fc fusion)
chain: LKIQAYFNETADLPCQFANSQNQSLSELVVFWQDQENLVLNEVYLGKEKFDSVHSKYMGRTSFDSDSWTLRLHNLQIKDKGLYQCIIHHKKPTGMIKIHEMNSELSVLA
notes: not shown: γ2/γ4 Fc
fold of EC50 binding ratio over wild-type CD86 [2]: ~10 times
